The values that follow come from the DeepSol protein solubility set.

This data set is described as follows: soluble on expression in E. coli; label from the status in PepcDB or PDB records.
With “MKAYVALLHSIVLGDGRRVVMADLKAMAEALGCRAPRTLVATGNLLFEAPEKPLAELEAELEKAFEKTFGRHVDIIVRSAEDWSRLAAGNPFLAESERDPASVHVRVMRLPLEVDMREKLLGYCSRGERVAIVDGDLWVDFAGKASESKLLGALTTKRLGIGTVRNWNTVKGLRGMVAG”, the “soluble on expression in E. coli” value was “not soluble”. Turning to “MSLAKRIVGSTPKQDGFRMPGEFEPQEKVWMIWPERPDNWRDGGKPVQEAFTNVAKAISQFTPMNVVVSQQQFQNCRRQLPPEITVYEMSNNDAWVRDCGPSFVINDHGEIRGVDWTFNAWGGLVDGLYFPWDQDDLVAQKICEIEHVDSYRTDDFVLEGGSFHVDGQGTVLTTEMCLLSEGRNPQLSKEAIEQKLCDYLNVEKVLWLGDGIDPEETNGHVDDVACFIAPGEVACIYTEDQNSPFYEAAQDAYQRLLKMTDAKGRQLKVHKLCCPVKNVTIKGSFKIDFVEGTMPREDGDICIASYMNFLITNDGVIVPQYGDENDHLALEQVQTMFPDKKIVGVNTVEVVYGGGNIHCITQQEPKREGGSHHHHHH”, the “soluble on expression in E. coli” value is on record as “soluble”.

For “MLEQIRNTHPLVYQNFSALPDGEKHLRSILAIDRYWEKLDLPVPDVILAGSRLPVDACVEEACDILYAGGTLGLLHAAVMSKKYGRKVLVIDRAEPGRTTRDWNISRGELLRLADTGVFTSEELDSTIVRMYKTGWVEFHAPAERRKRLYMDEVLDCAVDADRLLGMACKKVLAGGGSKVLGHTSFVCCYQFPDHLVVQVEELSGKPRYFRTQVLVDAMGIVSPVAMQLNRGRPQTHVCPTVGTIASGFENADFEVGEILASTEDAEVSGKRGRQLIWEGFPAKGDEYITYLFFYDKVDSPNDKSLLGLFEAYFRKLPEYKKPGPNFTIHRPVFGIIPAYFHDGAGCTRVVSGERIALLGDAASLASPLTFCGFGSVVRNLDRMTSGLDRAMREGRLGAAELANISAYEPNVASMATLMKYMCYDPETDEPGFVNEMMNEVMIVLDELPQRYRQAMFRDEMKVEELVTVMLKVAWRYPKILKATWNKLGVGGSVGFVKNLAGWAISQNEKRGLEHHHHHH”, the “soluble on expression in E. coli” value is “not soluble”. The value for “MMSTLALVSLAIFGIAVVCAAPKPATVPVANEEDYLAALYGFEAPGSQFKGAPLQSKRHISPSYDVEIDAGNMRNLLDIGKRSAPMASDYGNQFQMYNRLIDAGKKKRSPAISPAYQFENAFGLSEALERAGRR” was “not soluble”; that for “MAHHHHHHMQIGLAGCSSSLHTSPSSGSAAGSGFYGARGQEAAASATVNSSGANGLCAGATMSSPSATPTLPPLPSTMDEPVDLFPLTPSVSMLQRHSKRSGRLLNESETMQEKHGQEYRFLVPWLAYAIDCTIAAHEVLRQKHGIPAHVSSPASPSANTLNGATDVKRSSRGSANGDPTYADTAGGSSGSGQAALPSPQAELNAFSTREVPAISVHDYLKRIVKYTYVSPSVLVCGCLYLDRLLCMHPCMLLHPYNVFKLFLTSTRMASKIMDTRTLNNHDFSVVGGVTNDDLNALEFLMVELLQNRLYFSRDTFDEYCRPLRLQAAHLTEEASDWGAETAMETPVETRSGVQHQPTRPFLARCNGSNTRSRRSSILSQNEYSVSIASQSGVSPLRSASRPAFPPSASTARSISVDTESIGPARAPASRGGSASTSAPRHPLGTSYSPALPHVPHTAANGGSSPALGAMGGLSGRGASGEDMLRVATHTNSIYQSSNGVWTGQTPPDSVTVLVGVEERGDERARSISLSAPRCGATTSWDATGRPSRLLAASTSTMAGLCTAALNGGRGGYESSPNVCAAPTYNRASASSSRGITASAEDFGAGSMVISYSDRTPTRRAFSHASREGIALPPVVCSGRSERSASVIGVAAQGQRLPPPPDQPRV” was “not soluble”.

On to “MNWRAASAPPRSSPGLTSTCSRAAHWRDRGGAAAHAVLANVPQGRTLRDDAADLGWKPNHKFKGKLILTAPDAMPVDLNGVTITIAGPLQDELQALQDMHDQWLRQRKADPTRPPASAMLAAFVDKSVPNLSSIVLLAECGGKTMLLTGDARGDKIIEGLETTGKLAKDETLHVDILKVPHHGSDNNMETSFFERVTADHYVFSGNGDYGNPERATLQMLLDARGVAEDFTIHLTYPIEEIDAGREADWVKQQAKEAGRAKPPKGGVRPDWSAEEQGLVAFFANNPELAAHLIDLLDKAVVLEHHHHHH”, for which the “soluble on expression in E. coli” value is “not soluble”. The value for “GPGSMQKSKRHGMHMDFNPLEHCNAPMDSVVGYSSDVPSMSNCHRHWLSETYAYTTIGYPHEVMKKMPYGSEWKRAPTGLCWTADEFVARYLLHTRGIFVYFGGSRHDLYWENLKFFGSSGMHRLYERINFENKVEVTTTKRRKRHTPLVGDVVVWDSDYKAYFPRGHVAVVVKVEDDVSAAGGEAALRELKKERRQPSLVYIAEQNFDNKNWEGRNFSRVLKFTWMRGDRASLEDPDGPPLMGHVRVGKLLEDASFFGDL” was “not soluble”; that for “MREEDRRGGVKLSLTRLFLHERTVEIILRILKAEENGEKIYPLQISTDIGSPYSYVSKVLGELEKCSLVESRPEGRMRVVSLTPYGKVVASMLRDLYTELEKDFNSRMKLDILKDVYSNANGDVRVYLPVMAELEMLAKSTNDGFVVEEAKKLISEVKRKIEGAK” was “soluble”; that for “MGSDKIHHHHHHMEFNDQRVRYFFEAARLGGVRAAADRMDIAASAVSRQIRQLEMELGATLFERHRRGFQPTEAGRLLLDYHRKQLSEQEAVLTALRELKGIHRGHVSVVTGGGVISDLIDAIHPFSQRYPQITVGIDIRGTNDIVRAVLEDRAHIGVVFYTAPNPLLRVHRSSIQPLYAVAAPDHPLARAERPIRLEELARHKLALPDVSFGVRQILRDAEKAEQCQLEPAIVTNSFRVMVEYALTGQAATVQPRFSVRRELESGQLQAIPIQQRNLQQAEVHLITHHGRRLSPAAARLLETLAASMPAFRDSAVTP” was “not soluble”. In the case of “MGPLCAVCESPTAFTLHFGGRCCKACAAFFRRTIALDLKYECAADDPCEIHFKFPGMRLVCRECRLRKCYSAGMRSELVRSKRENFACTRRKDSRNNSDAAPNSNSPSTRQSSSPEEMDDWSFQMFEEKPKIEDLPLTPSISHPPLPTQLMPEESSRTSSFDGGYCSSYPSSSAATHPSPPGMLYSIENNSILQYYHSMETGLCSKRRIMYTNTGMDFILDTHANLQCPFTVNDLRPHDYRNFRGMLRHDFVMLFDYATRFPEFNSFTSHEKNMFYRQIVAVDFILSSAYYTAKLGQAHRQMVLTNGEYLNMDPLPMSGNEIDARRYFDCDEDFSKYRALMPMHIAIWEESIVPFSKLNVTFEEFCLLKALTVWQATYFKLTENGREKCRRQRNIIIGFLSKMCHSPGGGGEHRVGELLMSMNYLRESAQKLTTSYVMLTVFNVLNCDSMLHEMLNFQY”, the “soluble on expression in E. coli” value is recorded as “not soluble”. Take “MAHHHHHHMANNNMDDINLECENDNDNKISSEKRLVDEIIENNIEEIKKKEKDNKEKDNKEKDNKEKDIMFNIKNGLCDLEKTLDGEGYAYSNLTCRKKGIDFIPKSITRYIHLKYINLSHNNINDLVHLYFLPNIIFLDVSYNMLKEIVELKKEYLKNCIYINLSHNLISHMNNIFLKNLLEFNISYNTINNINIYISNTIRILNLSNNNIKNINFKNKLNNLLDLDISFNPIENLDFHTLMPNLVVLRINDNSTISMDKLNNLNNFKCLQSLFMQNYLYFKDISYKDVKEILLQNSKDIHLLKFNGNRLNKKTDHIEQADVNK”: the “soluble on expression in E. coli” value is “soluble”. With “RSDTIMVLSINPKEKKTELVSIPRDTKAEIAGRGTEEKINHAYAYGGPNMAVKTIEKLMNVPIDHYATIDMDGLHDMIDTLGGVDVVSNSTFTMGANHFVKGEKTHVDGDAAMDFIRSRKEDGAGGDFGRQERQQLILEAMADKLTS”, the “soluble on expression in E. coli” value is reported as “not soluble”.

Consider “SLSAASILVVDDEESLRITLAANLELEGHLVLEASSGDEALRLLRERAVDVVLTDIRMPGLHGVELHRHLRREHPGLPVVLMTAFAQESLINDALAEGAFTVLPKPFDVEHLLETLRREG”, for which the “soluble on expression in E. coli” value is listed as “soluble”.
